{"source": "paper PMC3310279", "about": "(Bioconjugate Chemistry, 2012)", "tested_on": "MDA-MB-435 human breast tumor xenografts", "assay": "Biodistribution in mice bearing MDA-MB-435 xenografts", "type": "in vivo", "conditions": "MDA-MB-435 tumor-bearing athymic nude mice, 60 min p.i., mean ± SD n = 4", "data": [{"substance": "[^99mTc(HYNIC-K(NIC)-3G-RGD2)(tricine)] [Complex 2]", "values": [{"measurement": "Tumor/Liver ratio", "value": "4.1 ± 0.97"}]}]}
